Source: US20190077860A1 (EISAI R AND D MANAGEMENT, published 2019)
Changes are numbered by the printed parent chain.

T1: human EphB3 extracellular region-SEAP-His protein (human, UniProt P54753 34-559)
T1 construct: extracellular domain; also called hEphB3-SEAP-His
T1 sequence (looked up): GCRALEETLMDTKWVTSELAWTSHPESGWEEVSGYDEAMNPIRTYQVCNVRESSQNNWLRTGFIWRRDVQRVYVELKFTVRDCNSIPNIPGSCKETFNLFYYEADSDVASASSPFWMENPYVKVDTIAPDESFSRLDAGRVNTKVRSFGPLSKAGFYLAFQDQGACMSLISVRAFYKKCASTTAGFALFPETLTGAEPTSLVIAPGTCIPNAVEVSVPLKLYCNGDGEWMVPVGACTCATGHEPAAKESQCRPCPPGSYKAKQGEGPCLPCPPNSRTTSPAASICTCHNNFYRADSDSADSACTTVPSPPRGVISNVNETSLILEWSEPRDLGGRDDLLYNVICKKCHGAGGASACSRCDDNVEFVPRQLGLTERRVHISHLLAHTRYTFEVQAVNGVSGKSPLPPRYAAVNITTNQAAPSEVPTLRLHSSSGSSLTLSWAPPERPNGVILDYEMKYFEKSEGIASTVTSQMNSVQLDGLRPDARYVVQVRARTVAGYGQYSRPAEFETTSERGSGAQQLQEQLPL

T2: human EphA10 extracellular region-SEAP-His protein (human, UniProt Q5JZY3 34-565)
T2 construct: extracellular domain; also called hEphA10-SEAP-His
T2 sequence (looked up): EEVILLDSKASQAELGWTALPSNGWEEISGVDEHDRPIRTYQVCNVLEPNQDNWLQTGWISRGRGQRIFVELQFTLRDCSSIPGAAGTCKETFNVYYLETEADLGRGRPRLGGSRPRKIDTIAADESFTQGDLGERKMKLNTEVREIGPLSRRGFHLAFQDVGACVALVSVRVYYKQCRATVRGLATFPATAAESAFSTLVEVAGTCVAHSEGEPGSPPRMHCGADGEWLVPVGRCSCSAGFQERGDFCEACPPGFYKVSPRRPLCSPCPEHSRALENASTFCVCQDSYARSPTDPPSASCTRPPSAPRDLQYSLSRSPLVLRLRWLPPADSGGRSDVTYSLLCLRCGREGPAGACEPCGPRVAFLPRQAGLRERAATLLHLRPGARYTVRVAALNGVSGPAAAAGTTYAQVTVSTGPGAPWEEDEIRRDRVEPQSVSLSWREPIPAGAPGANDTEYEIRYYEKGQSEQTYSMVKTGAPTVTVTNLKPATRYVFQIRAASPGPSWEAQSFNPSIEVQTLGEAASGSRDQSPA

B1: humanized antibody No. 94 (antibody, human IgG1, kappa)
heavy: QVQLVQSGSELKKPGASVKVSCKASGYTFTDYSMHWVRQAPGQGLKWMGWINTETGEPTYAQGFTGRFVFSLDTSVSTAYLQISSLKAEDTAVYYCARIPLYYYGSRYWYFDVWGQGTTVTVSSASTKGPSVFPLAPSSKSTSGGTAALGCLVKDYFPEPVTVSWNSGALTSGVHTFPAVLQSSGLYSLSSVVTVPSSSLGTQTYICNVNHKPSNTKVDKRVEPKSCDKTHTCPPCPAPPAAAPSVFLFPPKPKDTLMISRTPEVTCVVVDVSHEDPEVQFNWYVDGVEVHNAKTKPREEQFNSTFRVVSVLTVVHQDWLNGKEYKCKVSNKGLPAPIEKTISKTKGQPREPQVYTLPPSREEMTKNQVSLTCLVKGFYPSDIAVEWESNGQPENNYKTTPPMLDSDGSFFLYSKLTVDKSRWQQGNVFSCSVMHEALHNHYTQKSLSLSPG
light: EIVMTQSPATLSVSPGERATLSCRASENIYRNLAWYQQKPGQSPRLLIYAATNLADGIPARFSGSGSGTEYTLTISSLQSEDFAVYYCQHFWGTPWTFGQGTKVEIKRTVAAPSVFIFPPSDEQLKSGTASVVCLLNNFYPREAKVQWKVDNALQSGNSQESVTEQDSKDSTYSLSSTLTLSKADYEKHKVYACEVTHQGLSSPVTKSFNRGEC
notes: human Ig kappa; also called L2-4/HA2
B2: humanized antibody No. 93 (antibody, human IgG1, kappa)
heavy: B1 heavy with K46E
light: B1 light
notes: human Ig kappa; also called L2-4/HA1
B3: humanized antibody No. 73 (antibody, human IgG1, kappa)
heavy: B1 heavy with V2I, Q62D, G63D, T65K
light: B1 light
notes: human Ig kappa; also called L2-4/HK4
B4: humanized antibody No. 95 (antibody, human IgG1, kappa)
heavy: B1 heavy with K46E, Q62D, G63D, T65K
light: B1 light
notes: human Ig kappa; also called L2-4/HK1
B5: humanized antibody No. 71 (antibody, human IgG1, kappa)
heavy: B1 heavy with V2I
light: B1 light
notes: human Ig kappa; also called L2-4/HA4
B6: humanized antibody No. 96 (antibody, human IgG1, kappa)
heavy: B1 heavy with Q62D, G63D, T65K
light: B1 light
notes: human Ig kappa; also called L2-4/HK2
B7: humanized antibody No. 152 (antibody, human IgG2)
heavy: QVQLVQSGSELKKPGASVKVSCKASGYTFTDYSMHWVRQAPGQGLEWMGWINTETGEPTYAQGFTGRFVFSLDTSVSTAYLQISSLKAEDTAVYYCARIPLYYYGSRYWYFDVWGQGTTVTVSSASTKGPSVFPLAPSSRSTSESTAALGCLVKDYFPEPVTVSWNSGALTSGVHTFPAVLQSSGLYSLSSVVTVPSSNFGTQTYTCNVDHKPSNTKVDKTVERKSCVECPPCPAPPAAAPSVFLFPPKPKDTLMISRTPEVTCVVVDVSHEDPEVQFNWYVDGVEVHNAKTKPREEQFNSTFRVVSVLTVVHQDWLNGKEYKCKVSNKGLPAPIEKTISKTKGQPREPQVYTLPPSREEMTKNQVSLTCLVKGFYPSDIAVEWESNGQPENNYKTTPPMLDSDGSFFLYSKLTVDKSRWQQGNVFSCSVMHEALHNHYTQKSLSLSPG
light: DIQMTQSPSSLSASVGDRVTITCRASENIYRNLAWYQQKPGKAPKLLLYAATNLADGVPSRFSGSGSGTDYTLTISSLQSEDFATYYCQHFWGTPWTFGQGTKVEIKRTVAAPSVFIFPPSDEQLKSGTASVVCLLNNFYPREAKVQWKVDNALQSGNSQESVTEQDSKDSTYSLSSTLTLSKADYEKHKVYACEVTHQGLSSPVTKSFNRGEC
notes: human Ig kappa; also called L1-5/HA1
B8: humanized antibody No. 134 (antibody, human IgG2)
heavy: B7 heavy with E46K
light: B1 light
notes: as for B1
B9: humanized antibody No. 154 (antibody, human IgG2)
heavy: B7 heavy with Q62D, G63D, T65K
light: B7 light
notes: human Ig kappa; also called L1-5/HK1
B10: humanized antibody No. 136 (antibody, human IgG2)
heavy: B7 heavy with E46K, Q62D, G63D, T65K
light: B1 light
notes: as for B6
B11: humanized antibody No. 156 (antibody, human IgG2)
heavy: B7 heavy with V2I, E46K
light: B7 light with K45Q, S80P
notes: human Ig kappa; also called L1-6/HA4
B12: humanized antibody No. 157 (antibody, human IgG2)
heavy: B7 heavy
light: B7 light with K45Q, S80P
notes: human Ig kappa; also called L1-6/HA1
B13: humanized antibody No. 159 (antibody, human IgG2)
heavy: B7 heavy with E46K, Q62D, G63D, T65K
light: B7 light with K45Q, S80P
notes: human Ig kappa; also called L1-6/HK2
B14: humanized antibody No. 158 (antibody, human IgG2)
heavy: B7 heavy with E46K
light: B7 light with K45Q, S80P
notes: human Ig kappa; also called L1-6/HA2
B15: humanized antibody No. 133 (antibody, human IgG2)
heavy: B7 heavy
light: B1 light
notes: as for B2
B16: humanized antibody No. 160 (antibody, human IgG2)
heavy: B7 heavy with V2I, E46K, Q62D, G63D, T65K
light: B7 light with K45Q, S80P
notes: human Ig kappa; also called L1-6/HK4
B17: humanized antibody No. 137 (antibody, human IgG2)
heavy: B7 heavy with V2I, E46K, Q62D, G63D, T65K
light: B1 light
notes: as for B3
B18: humanized antibody No. 132 (antibody, human IgG2)
heavy: B7 heavy with V2I, E46K
light: B1 light
notes: as for B5
B19: humanized antibody No. 135 (antibody, human IgG2)
heavy: B7 heavy with Q62D, G63D, T65K
light: B1 light
notes: as for B4
B20: humanized antibody No. 153 (antibody, human IgG2)
heavy: B7 heavy with E46K
light: B7 light
notes: human Ig kappa; also called L1-5/HA2
B21: humanized antibody No. 155 (antibody, human IgG2)
heavy: B7 heavy with V2I, E46K, Q62D, G63D, T65K
light: B7 light
notes: human Ig kappa; also called L1-5/HK4

The binders below were run against T1, human EphB3 extracellular … (assay: ELISA).

A450 as % of hEphA4-SEAP-His [%] | Binder
6.7 | B1
5.1 | B2
5.8 | B3
4.6 | B4
5.5 | B5
5.6 | B6
6 | B7
5.2 | B8
6.2 | B9
5.5 | B10
5.6 | B11
6.4 | B12
5.5 | B13
6.5 | B14
4.7 | B15
6.2 | B16
5.7 | B17
4.7 | B18
5 | B19
5.9 | B20
5.5 | B21

These binders were tested against T2, human EphA10 extracellular … (assay: ELISA).

A450 as % of hEphA4-SEAP-His [%] | Binder
6.4 | B1
4.9 | B2
5.6 | B3
4.5 | B4
5.3 | B5
5.3 | B6
5.8 | B7
5 | B8
5.9 | B9
5.2 | B10
5.3 | B11
6.1 | B12
5.3 | B13
6.4 | B14
4.7 | B15
5 | B16
5.6 | B17
4.7 | B18
5.1 | B19
6 | B20
5.4 | B21
